From patent US20210388110A1 (published 2021)

target: T1, soluble human GPC3 (human, UniProt P51654 25-563, limits assumed); assay: SPR (Biacore), soluble human GPC3
T1 construct: soluble human GPC3 as analyte; also called glypican 3
T1 sequence (P51654 other isoform, or with tags, fused parts or gaps limits assumed, form in doubt): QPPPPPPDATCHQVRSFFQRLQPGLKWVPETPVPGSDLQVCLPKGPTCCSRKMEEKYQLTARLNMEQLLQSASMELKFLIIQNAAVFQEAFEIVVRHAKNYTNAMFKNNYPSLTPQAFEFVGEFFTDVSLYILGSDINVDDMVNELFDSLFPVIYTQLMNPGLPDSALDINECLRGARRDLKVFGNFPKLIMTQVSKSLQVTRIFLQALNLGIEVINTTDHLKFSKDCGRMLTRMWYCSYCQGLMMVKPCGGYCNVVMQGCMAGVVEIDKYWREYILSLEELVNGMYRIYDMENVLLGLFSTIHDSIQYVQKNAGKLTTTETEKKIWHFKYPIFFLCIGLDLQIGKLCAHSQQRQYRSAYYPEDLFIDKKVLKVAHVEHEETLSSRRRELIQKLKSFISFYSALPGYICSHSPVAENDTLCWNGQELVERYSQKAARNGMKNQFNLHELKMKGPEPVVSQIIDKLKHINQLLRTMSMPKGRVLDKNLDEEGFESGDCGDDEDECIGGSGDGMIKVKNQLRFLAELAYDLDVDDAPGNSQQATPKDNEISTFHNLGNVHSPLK

| Kd | Binder |
| --- | --- |
| 4 nM | H0610-G1dh/none-Hi-Kn010G3/L0230-k0 (antibody, human IgG1, kappa, single-arm (one Fab)) heavy: not shown EPKSSDKTHTCPPCPAPELLGGPSVFLFPPKPKDTLMISRTPEVTCVVVDVSHEDPEVKFNWYVDGVEVHNAKTKPREEQYNSTYRVVSVLTVLHQDWLNGKEYKCKVSNKALPAPIEKTISKAKGQPREPQVCTLPPSRDELTKNQVSLWCLVKGFYPSDIAVEWESNGQPENNYKTTPPVLDSDGSFFLYSKLTVDKSRWQQGNVFSCSVMHEALHNRYTQKSLSLSP light: DIVMTQSPLSLPVTPGEPASISCRSSQSPVHSNRNTYIHWYQQKPGQAPRLLIYKVSNRFSGVPDRFSGSGSGTDFTLKISRVEAEDVGVYYCYQTTQVPYTFGQGTKLEIKRTVAAPSVFIFPPSDEQLKSGTASVVCLLNNFYPREAKVQWKVDNALQSGNSQESVTEQDSKDSTYSLSSTLTLSKADYEKHKVYACEVTHQGLSSPVTKSFNRGEC |
| 0.778 nM | H0610-G1dh/none-Hi-Kn010G3/L0234-k0 (antibody, human IgG1, kappa, single-arm (one Fab)) heavy: not shown EPKSSDKTHTCPPCPAPELLGGPSVFLFPPKPKDTLMISRTPEVTCVVVDVSHEDPEVKFNWYVDGVEVHNAKTKPREEQYNSTYRVVSVLTVLHQDWLNGKEYKCKVSNKALPAPIEKTISKAKGQPREPQVCTLPPSRDELTKNQVSLWCLVKGFYPSDIAVEWESNGQPENNYKTTPPVLDSDGSFFLYSKLTVDKSRWQQGNVFSCSVMHEALHNRYTQKSLSLSP light: DIVMTQSPLSLPVTPGEPASISCRSSQEPVHSNRNTYLHWYQQKPGQAPRLLIYKVSNRFRGVPDRFSGSGSGTDFTLKISRVEAEDVGVYYCGQGTQVPYTFGQGTKLEIKRTVAAPSVFIFPPSDEQLKSGTASVVCLLNNFYPREAKVQWKVDNALQSGNSQESVTEQDSKDSTYSLSSTLTLSKADYEKHKVYACEVTHQGLSSPVTKSFNRGEC |
| 1.31 nM | H0610-G1dh/none-Hi-Kn010G3/L0237-k0 (antibody, human IgG1, kappa, single-arm (one Fab)) heavy: not shown EPKSSDKTHTCPPCPAPELLGGPSVFLFPPKPKDTLMISRTPEVTCVVVDVSHEDPEVKFNWYVDGVEVHNAKTKPREEQYNSTYRVVSVLTVLHQDWLNGKEYKCKVSNKALPAPIEKTISKAKGQPREPQVCTLPPSRDELTKNQVSLWCLVKGFYPSDIAVEWESNGQPENNYKTTPPVLDSDGSFFLYSKLTVDKSRWQQGNVFSCSVMHEALHNRYTQKSLSLSP light: DIVMTQSPLSLPVTPGEPASISCRSSQEPVHSNRNTYIHWYQQKPGQAPRLLIYKVSNRFSGVPDRFSGSGSGTDFTLKISRVEAEDVGVYYCYQGTQVPYTFGQGTKLEIKRTVAAPSVFIFPPSDEQLKSGTASVVCLLNNFYPREAKVQWKVDNALQSGNSQESVTEQDSKDSTYSLSSTLTLSKADYEKHKVYACEVTHQGLSSPVTKSFNRGEC |
| 0.874 nM | H0610-G1dh/none-Hi-Kn010G3/L0239-k0 (antibody, human IgG1, kappa, single-arm (one Fab)) heavy: not shown EPKSSDKTHTCPPCPAPELLGGPSVFLFPPKPKDTLMISRTPEVTCVVVDVSHEDPEVKFNWYVDGVEVHNAKTKPREEQYNSTYRVVSVLTVLHQDWLNGKEYKCKVSNKALPAPIEKTISKAKGQPREPQVCTLPPSRDELTKNQVSLWCLVKGFYPSDIAVEWESNGQPENNYKTTPPVLDSDGSFFLYSKLTVDKSRWQQGNVFSCSVMHEALHNRYTQKSLSLSP light: DIVMTQSPLSLPVTPGEPASISCRSSESPVHSNRNTYLHWYQQKPGQAPRLLIYKVSNRFRGVPDRFSGSGSGTDFTLKISRVEAEDVGVYYCGQGTQVPYTFGQGTKLEIKRTVAAPSVFIFPPSDEQLKSGTASVVCLLNNFYPREAKVQWKVDNALQSGNSQESVTEQDSKDSTYSLSSTLTLSKADYEKHKVYACEVTHQGLSSPVTKSFNRGEC |
| 1.19 nM | H0610-G1dh/none-Hi-Kn010G3/L0242-k0 (antibody, human IgG1, kappa, single-arm (one Fab)) heavy: not shown EPKSSDKTHTCPPCPAPELLGGPSVFLFPPKPKDTLMISRTPEVTCVVVDVSHEDPEVKFNWYVDGVEVHNAKTKPREEQYNSTYRVVSVLTVLHQDWLNGKEYKCKVSNKALPAPIEKTISKAKGQPREPQVCTLPPSRDELTKNQVSLWCLVKGFYPSDIAVEWESNGQPENNYKTTPPVLDSDGSFFLYSKLTVDKSRWQQGNVFSCSVMHEALHNRYTQKSLSLSP light: DIVMTQSPLSLPVTPGEPASISCRSSESPVHSNRNTYIHWYQQKPGQAPRLLIYKVSNRFSGVPDRFSGSGSGTDFTLKISRVEAEDVGVYYCYQGTQVPYTFGQGTKLEIKRTVAAPSVFIFPPSDEQLKSGTASVVCLLNNFYPREAKVQWKVDNALQSGNSQESVTEQDSKDSTYSLSSTLTLSKADYEKHKVYACEVTHQGLSSPVTKSFNRGEC |
| 0.637 nM | H0610-G1dh/none-Hi-Kn010G3/L0238-k0 (antibody, human IgG1, kappa, single-arm (one Fab)) heavy: not shown EPKSSDKTHTCPPCPAPELLGGPSVFLFPPKPKDTLMISRTPEVTCVVVDVSHEDPEVKFNWYVDGVEVHNAKTKPREEQYNSTYRVVSVLTVLHQDWLNGKEYKCKVSNKALPAPIEKTISKAKGQPREPQVCTLPPSRDELTKNQVSLWCLVKGFYPSDIAVEWESNGQPENNYKTTPPVLDSDGSFFLYSKLTVDKSRWQQGNVFSCSVMHEALHNRYTQKSLSLSP light: DIVMTQSPLSLPVTPGEPASISCRSSEPPVHSNRNTYLHWYQQKPGQAPRLLIYKVSNRFSGVPDRFSGSGSGTDFTLKISRVEAEDVGVYYCYQGTQVPYTFGQGTKLEIKRTVAAPSVFIFPPSDEQLKSGTASVVCLLNNFYPREAKVQWKVDNALQSGNSQESVTEQDSKDSTYSLSSTLTLSKADYEKHKVYACEVTHQGLSSPVTKSFNRGEC |
| 0.848 nM | H0610-G1dh/none-Hi-Kn010G3/L0240-k0 (antibody, human IgG1, kappa, single-arm (one Fab)) heavy: not shown EPKSSDKTHTCPPCPAPELLGGPSVFLFPPKPKDTLMISRTPEVTCVVVDVSHEDPEVKFNWYVDGVEVHNAKTKPREEQYNSTYRVVSVLTVLHQDWLNGKEYKCKVSNKALPAPIEKTISKAKGQPREPQVCTLPPSRDELTKNQVSLWCLVKGFYPSDIAVEWESNGQPENNYKTTPPVLDSDGSFFLYSKLTVDKSRWQQGNVFSCSVMHEALHNRYTQKSLSLSP light: DIVMTQSPLSLPVTPGEPASISCRSSESPVHSNRNTYLHWYQQKPGQAPRLLIYKVSNRFSGVPDRFSGSGSGTDFTLKISRVEAEDVGVYYCYQGTQVPYTFGQGTKLEIKRTVAAPSVFIFPPSDEQLKSGTASVVCLLNNFYPREAKVQWKVDNALQSGNSQESVTEQDSKDSTYSLSSTLTLSKADYEKHKVYACEVTHQGLSSPVTKSFNRGEC |
| 3.55 nM | H0610-G1dh/none-Hi-Kn010G3/L0233-k0 (antibody, human IgG1, kappa, single-arm (one Fab)) heavy: not shown EPKSSDKTHTCPPCPAPELLGGPSVFLFPPKPKDTLMISRTPEVTCVVVDVSHEDPEVKFNWYVDGVEVHNAKTKPREEQYNSTYRVVSVLTVLHQDWLNGKEYKCKVSNKALPAPIEKTISKAKGQPREPQVCTLPPSRDELTKNQVSLWCLVKGFYPSDIAVEWESNGQPENNYKTTPPVLDSDGSFFLYSKLTVDKSRWQQGNVFSCSVMHEALHNRYTQKSLSLSP light: DIVMTQSPLSLPVTPGEPASISCRSSQELVHSNRNTYLHWYQQKPGQAPRLLIYKVSNRFSGVPDRFSGSGSGTDFTLKISRVEAEDVGVYYCGQGTQVPYTFGQGTKLEIKRTVAAPSVFIFPPSDEQLKSGTASVVCLLNNFYPREAKVQWKVDNALQSGNSQESVTEQDSKDSTYSLSSTLTLSKADYEKHKVYACEVTHQGLSSPVTKSFNRGEC |
| 0.589 nM | H0610-G1dh/none-Hi-Kn010G3/L0231-k0 (antibody, human IgG1, kappa, single-arm (one Fab)) heavy: not shown EPKSSDKTHTCPPCPAPELLGGPSVFLFPPKPKDTLMISRTPEVTCVVVDVSHEDPEVKFNWYVDGVEVHNAKTKPREEQYNSTYRVVSVLTVLHQDWLNGKEYKCKVSNKALPAPIEKTISKAKGQPREPQVCTLPPSRDELTKNQVSLWCLVKGFYPSDIAVEWESNGQPENNYKTTPPVLDSDGSFFLYSKLTVDKSRWQQGNVFSCSVMHEALHNRYTQKSLSLSP light: DIVMTQSPLSLPVTPGEPASISCRSSQSPVHSNRNTYIHWYQQKPGQAPRLLIYKVSNRFSGVPDRFSGSGSGTDFTLKISRVEAEDVGVYYCYQGTQWPYTFGQGTKLEIKRTVAAPSVFIFPPSDEQLKSGTASVVCLLNNFYPREAKVQWKVDNALQSGNSQESVTEQDSKDSTYSLSSTLTLSKADYEKHKVYACEVTHQGLSSPVTKSFNRGEC |
